Among the data in article PMC9054013, “FCHO controls AP2’s initiating role in endocytosis through a PtdIns(4,5)P2-dependent switch” (Science Advances, 2022) are Kd, fold tighter binding than AP2 core and fold reduction of binding against N1+N2 values, retold here.

Assay [1] has as its target GST-FCHO1 linker wt (N123C) (residues 316 to 444) (human) (UniProt O14526). In words: BLI; GST-FCHO1 or GST-FCHO2 linker loaded on anti-GST biosensors, blocked with GST-ARRS control; AP2 core in solution (twofold dilutions, 13.5 to 0.8 and 10.0 to 0.2 μM); 25°C; 0.1% NP-40, BSA 1 mg/ml; equilibrium analysis; near-physiological conditions.
The target of assay [2] is GST-FCHO2 linker wt (residues 314 to 444) (human) (UniProt Q0JRZ9). The assay is described as above.
GST-FCHO2 linker wt (residues 314 to 444) (human), sequence (Q0JRZ9 314-444): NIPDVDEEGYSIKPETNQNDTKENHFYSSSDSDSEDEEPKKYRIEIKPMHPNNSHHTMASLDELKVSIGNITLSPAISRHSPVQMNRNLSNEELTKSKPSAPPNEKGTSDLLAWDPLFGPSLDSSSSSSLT
Assay [3] deals with GST-TGN38 (pGEX4T2 linker TGN38). The experiment in a line: BLI; GST-TGN38 loaded on anti-GST biosensors; AP2 core (3.3 to 0.1 μM) or AP2 FCHO2 chimera (2.6 to 0.9 μM) in solution; physiological buffer; association 20 min, dissociation 25 min.
GST-TGN38 (pGEX4T2 linker TGN38), sequence (Q9UJY5 other isoform, or with tags, fused parts or gaps): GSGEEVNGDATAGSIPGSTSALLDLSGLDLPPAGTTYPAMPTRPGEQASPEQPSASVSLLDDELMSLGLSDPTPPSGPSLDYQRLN
For assay [4], the target named is AP2 α-appendage (residues 695 to 938) (UniProt P17427). In words: ITC; α-appendage or β2-appendage with C block peptides; 100 mM tris pH 7.4, 150 mM NaCl, 0.25 mM TCEP; 12°C; peptides 1 to 5 mM titrated.
AP2 α-appendage (residues 695 to 938), sequence (P17427 695-938): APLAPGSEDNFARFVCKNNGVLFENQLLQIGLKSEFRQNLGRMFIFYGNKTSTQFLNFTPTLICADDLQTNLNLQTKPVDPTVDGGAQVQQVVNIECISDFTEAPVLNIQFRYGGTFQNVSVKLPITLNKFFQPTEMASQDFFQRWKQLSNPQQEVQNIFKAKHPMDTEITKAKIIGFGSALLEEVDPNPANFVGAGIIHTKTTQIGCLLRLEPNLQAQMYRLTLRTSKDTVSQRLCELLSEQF
For assay [5], the target named is Cμ2 (μ2 residues 160 to 435) (UniProt P84092). In words: ITC; Cμ2 with FCHO2 constructs or peptides; 100 mM tris pH 7.4, 150 mM NaCl, 0.25 mM TCEP; 12°C; Nano ITC.
Cμ2 (μ2 residues 160 to 435), sequence (P84092 160-435): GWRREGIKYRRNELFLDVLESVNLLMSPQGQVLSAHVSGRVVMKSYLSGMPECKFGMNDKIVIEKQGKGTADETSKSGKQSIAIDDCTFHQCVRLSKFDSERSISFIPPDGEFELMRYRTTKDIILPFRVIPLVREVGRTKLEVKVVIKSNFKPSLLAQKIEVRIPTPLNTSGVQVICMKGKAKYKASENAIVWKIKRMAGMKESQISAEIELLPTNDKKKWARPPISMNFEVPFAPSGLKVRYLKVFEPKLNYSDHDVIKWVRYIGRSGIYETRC

GST-FCHO1 linker wt (N123C) (residues 316 to 444) (human), sequence (O14526 316-444, stated change not applied): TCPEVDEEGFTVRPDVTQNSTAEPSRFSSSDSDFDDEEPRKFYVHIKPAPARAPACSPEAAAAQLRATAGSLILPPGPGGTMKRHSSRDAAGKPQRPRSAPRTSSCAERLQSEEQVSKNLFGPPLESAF

As to “AP2 core (recombinant) (from UniProt P63010 1-591; P84092 1-435; P62743 1-142) (complex)”, the dissociation constant (Kd) in assay [1] turned out to be 8.5 µM; in assay [2], 9.8 µM.

The substance “AP2:μ2FCHO2-N1+N2+N3 chimeric AP2 core (from UniProt P62743 1-142; P63010 1-591; Q0JRZ9-1 314-444) (complex)” gave a fold tighter binding than AP2 core in assay [3] of 3 fold.

FCHO1 C peptide (residues 426 to 448) yielded a Kd in assay [4] of 50 µM. This counts as double-digit micromolar.

In the case of “FCHO2 N1 alone (ITC) (from UniProt Q0JRZ9-1 314-340) (domain or fragment)”, the fold reduction of binding against N1+N2 in assay [5] came out at 5 fold.

“FCHO2-N1+N2 (ITC) (from UniProt Q0JRZ9-1 314-356) (domain or fragment)” displayed a Kd in assay [5] of 25 µM.
